Test results taken from US20110076730A1 (priority 2006, published 2011).
Read-outs that look alike come from different tables or passages of the source.

B1: Xdh-C. crescentus: D-xylose dehydrogenase (Xdh) from Caulobacter crescentus CB15, protein RC001012 in the ERGO database (protein)
chain: MSSAIYPSLKGKRVVITGGGSGIGAGLTAGFARQGAEVIFLDIADEDSRALEAELAGSPIPPVYKRCDLMNLEAIKAVFAEIGDVDVLVNNAGNDDRHKLADVTGAYWDERINVNLRHMLFCTQAVAPGMKKRGGGAVINFGSISWHLGLEDLVLYETAKAGIEGMTRALARELGPDDIRVTCVVPGNVKTKRQEKWYTPEGEAQIVAAQCLKGRIVPENVAALVLFLASDDASLCTGHEYWIDAGWR
modifications: Caulobacter crescentus CB15
notes: D-xylose dehydrogenase (Xdh) from Caulobacter crescentus CB15, protein RC001012 in the ERGO database
B2: Xdh-B. fungorum: D-xylose dehydrogenase (Xdh) from Burkholderia fungorum LB400, protein RBU11704 in the ERGO database (protein)
chain: MYLLSYPEQVDYPMSYAIYPSLSGKTVVITGGGSGIGAAMVEAFARQGARVFFLDVAEDDSLALQQSLSDAPHPPLFRRCDLRSVDAIHSAFAGIVEIAGPIEVLVNNAGNDDRHEVDAITPAYWDERMAVNLRHQFFCAQAAAAGMRKIGRGVILNLGSVSWHLALPNLAIYMSAKAGIEGLTRGLARDLGAAGIRVNCIIPGAVRTPRQMQLWQSPESEAKLVASQCLRLRIEPEHVARMALFLASDDASRCSGRDYFVDAGWYGE
modifications: Burkholderia fungorum LB400
notes: D-xylose dehydrogenase (Xdh) from Burkholderia fungorum LB400, protein RBU11704 in the ERGO database

Assays:
[1] = assay type: biochemical; conditions: read-out: Cofactor Km
[2] = assay type: biochemical; conditions: read-out: L-arabinose Km
[3] = assay type: biochemical; conditions: read-out: D-xylose Km
[4] = assay type: biochemical; conditions: pH 8.3

Molecule	Km [1]	Km [2]	Km [3]	D-fructose, D-galactose, D-mannose, 2-deoxy-D-glucose, D-glucose-6-phosphate and D-ribose as substrates [4]	Oxidation of D-xylose, L-arabinose and D-glucose into corresponding sugar acid [4]
B1	130 µM	34000 µM	99 µM	not the substrates	could be oxidized
B2	260 µM	43000 µM	970 µM	not the substrates	could be oxidized
